A short description of this series: label from the status in PepcDB records.
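Also: failed if final PepcDB status was selected cloned or expressed and not failed if soluble or beyond.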

Regarding “MSTATLPHTVGKRLFRQTLLLALALSVVFSAVFTVVEYYRSKVSLNESVELLKKTHLDAITAALWSLDRQQIAAQIDGIHHYPFISYVAVVDQGGVVVESGTRSELFGDVRRIDLTATYNGRQVSLGSLYLEIDRQAIMRDALSTAAVTLLFQTLTITIVMLFTFMLFERQVTRHLAAAADYFTSFGFARVQQPLQLDKHRYGDEIDALVEAFNRMRESLAVAYQQQQGMLQAVRESEALLRAIARRIPNGGVWVVDTDGRYIMFEGSLVESLGLSGQEALGRMPGDLFGEPLADRLVGCYRLALAGGTLSEEIEYRERVLWIQFAPLEDEHGAVMAAVALGIDVTERRQAEAERREMLQRLGQAHKMEAVGRLAGGIAHDYNNKLTVILGYAHVLKLTGFQSKEAPEQLDQIIRAAEHSRDITRQLLAFTRSERVNPVRVDLNRLISQSSKSLTRLIGEDITLSHVAGADLWPVRIDPTQADQLLMNLVMNARDAIAGTGSVTIATSNVVLDRATVRHLQGASPGEYVLMTVSDTGCGMDPEVMEHIFEPFYTTKEMGKGTGLGLATVYGIVRQNGGAISVESEPGGGSVFSIYLPRFVGESHDVRRLGEVDETLPARTTLLVDDDDAVRDITALMLRRLGHTVITASDPDEAIHLCQQPGIVVDLILTDVIMPSMNGREMVRSILSHQKAAKVLYMSGYPADVVEGRGAVDADARLLSRLLKLK”, the protein production result is listed as “failed”.

For the sequence “MSTDDPRFAGIARLYGIEGLARLRAAHVAIVGIGGVGSWAAEAMARSGVGEISLFDMDDVCVSNSNRQLHALDTTVGRPKVEVMAERIRAINPDCVVHAVSDFVTRDTMAECITPDMDFVIDCIDSVNAKAALISWCKRRKIQMVTTGAAGGQIDPTLIQIADLNRTFNDPLASKVRSTLRRDYGFSRTPNRHYSVPCVFSTEQLRYPKPDGSICLEKKFIGDGVKLDCAGGFGAVMMVTATFGMIAATRAVDKLVAGTRRPSERAKPAAVTANQA”, the protein production entry was “failed”.

As to “MSTETIEIFNNSDEWANQLKHALSKGENLALLHGLTPDILDRIYAYAFDYHEKGNITDAEIYYKFLCIYAFENHEYLKDFASVCQPKKKYQQAYDLYKLSYNYFPYDDYSVIYRMGQCQIGAKNIDNAMQCFYHIINNCEDDSVKSKAQAYIELLNDNSEDNGLEHHHHHH”, the protein production result is reported as “failed”.

Take “MSTIFDTHWPWMGIGIACVLIILLFFTNTLRSDLRVNRWYDPFWLAWFSSTAYFIHNFEEYGIDLFGRHFEFPHLMTQTMHITPEISFFTMINIPLIWIAGPILAMMSKHRPVISLIMTGLMFTNALSHIVPLISSGMYTSGLFTSIVIFIPGSLWIYYIRFIKGNLRWSILIVSLIPPIITQGLLMLSILMYRNDFLNDTTVTVFELLNGCLFIIIAFIMEKSFKRKYKN”: the protein production entry is reported as “failed”.

Consider “MSTKGTILVTGGAGYIGSHTAVELLAHGYDVVIADNLVNSKREAIARIEKITGKTPAFHETDVSDERALARIFDAHPITAAIHFAALKAVGESVAKPIEYYRNNLDSLLSLLRVMRERAVKRIVFSSSATVYGVPERSPIDETFPLSATNPYGQTKLMAEQILRDVEAADPSWRVATLRYFNPVGAHESGLIGEDPAGIPNNLMPYVAQVAVGKLEKLRVFGSDYPTPDGTGVRDYIHVVDLARGHIAALDALERRDASLTVNLGTGRGYSVLEVVRAFEKASGRAVPYELVARRPGDVAECYANPAAAAETIGWKAERDLERMCADHWRWQENNPRGFV”, for which the protein production entry is “not failed”.

“MSTKSKIFLVLLVFCPLSFAAHWLGWGETTVFILAGLAIVPLAAFMGTATEEIAVVIGPNAGGLLNATFGNATELILAYIALKEGLIEVVKATLTGSIIGNLLLVMGFAVFLGGLRYKEQNFQPLAARLNASTMNLGVVAILLPTALQYTSTGVEETVLQNLSVAVAVVLIGVYLLSLVFSMGTHAYLYDVGVAENMEMPELGEDVSEPEPPTEEEKPNLWLWTGVLLVVTLGVAVESELLVGSLEVATESLGLTALFTGVIVLPIIGNAAEHATAVTVAMKDKMDLSMSVVMGSSLQIAFFVAPVLVIVGWAIGQPMDLNFNPFELVAVLVAVLIVNSISSDGTSNWLEGILLLATYAIVALAFFFHPTLV”: the protein production result is on record as “failed”.

Turning to “MSTLKLFVHNHSSKGDQSFLKTITFAITHFTVAFTVAYLLTGDILIGSLIAMVEPAINTVAYFFHEKIWARHQRNTTANAMNLRQNTH”, the protein production result is “failed”.

With “MSTPSHLNAQPLVWGHGPRTFEVFLEPTCPYSVRAFNKLDDLLDEVGADNVTIKIRLQSQPWHLFSGVIVRCILAASTLPHGREQAHKVMQAVADHREEFEFTDHCSGPNMNATPQQIIERIERYSHVLLGAAFARPELQDVIKWHSKYARQNGIHVSPTFMVNGLVQPDLGSGDDVSVWAARIMA”, the protein production result was “failed”.

Consider “MSTPSPALFFNTVNAYQRSAAIKAAVELNVFTAISQGIESSQSLAQKCQTSERGMRMLCDYLVIIGFMTKQAEGYRLTSDSAMFLDRQSKFYVGDAIEFLLSPMITNGFNDLTAAVLKGGTAISSEGTLSPEHPVWVQFAKAMSPMMANPAQLIAQLVNENKIEPLKVLDISASHGLFGIAVAQHNPNAEIFGVDWASVLEVAKENARIQGVASRYHTIAGSAFEVDYGNDYDLVLLPNFLHHFDVATCEQLLRKIKTALAVEGKVIVFDFIPNSDRITPPDAAAFSLVMLATTPNGDAYTFAEYESMFSNAGFSHSQLHSLPTTQQQVIVAYK”, for which the protein production entry is on record as “not failed”.

Turning to “MSTPTPDTDVEQVGLANTAFYEAMERGDFETLSSLWLTPADLGVDEEYHDPADAGVVSCVHPGWPVLSGRGEVLRSYALIMANTEYIQFFLTDVHVSVTGDTALVTCTENILSGGPPPDDSDELGPLVGQLVVATNVFRRTPDGWKLWSHHASPVLAETGAEEGDESPD”, the protein production entry is recorded as “not failed”.

Turning to “MSTRWLLLAAFAAGAALFSSFLKALFFAACLACAFRPLSRRLEAWRGPLVAAGLTTALAGMCLVIPVAVVGSLAAPQAVQGLAVLDGLRESNWFTSPEAQQLVDDIDARLRDLPGLEGGLRGLARNAAGILGTAARTALAGGVGLAGGALNAVLQGFIVLMLIFVFTAYARHIQRFALALLPMPRAMLDRCVTAFRGAVVGVLAGVVLVAAIQGVLCGIGFAVAGVPQAAFWGFIAAMVAPIPVVGTMAVWIPACAWLWFAGKTTAAIGLVLWSAIIVSGSDNILRPIFLKTGIEAPIALIFLAIICGLAAFGPMGLLLGPVLLALGLQLAREGLPGAPGVSGVSGAVEPRE”, the protein production result is listed as “failed”.

For “MSTSAIDPVSFSLYAKDFTRFAQELGASFERYGFAVLSDYDLDQARIDAAVDSAKAFFALPVETKKQYAGVKGGARGYIPFGVETAKGADHYDLKEFWHMGRDLPPGHRFRAHMADNVWPAEIPAFKHDVSWLYNSLDGMGGKVLEAIATYLKLERDFFKPTVQDGNSVLRLLHYPPIPKDATGVRAGAHGDINTITLLLGAEEGGLEVLDRDGQWLPINPPPGCLVINIGDMLERLTNNVLPSTVHRVVNPPPERRGVPRYSTPFFLHFASDYEIKTLQNCVTAENPDRYPESITADEFLQQRLREIKLA”, the protein production entry was “not failed”.

For the sequence “MSTSDSCYNTGYILRICAIAALGGILFGYDTAVISGAIGSLTSYFHLSPAETGWAVSCVVVGCVIGSFSAGYLSKRFGRKKSLMVSALLFTISAVGTSLSYTFTHFVIYRIIGGLAVGLAATVSPMYMSEVSPKNMRGRALSMQQFAIVFGQILIFYVNYKIASIAADTWLIELGWRYMFAAGIIPCILFCILVFLIPESPRWMMMIGREEETLKILTKISNEEHARHLLADIKTSLQNDQLNAHQKLNYRDGNVRFILILGCMIAMLQQVTGVNVMMYYAPIVLKDVTGSAQEALFQTIWIGVIQLIGSIIGAMIMDKMGRLSLMRKGTIGSIIGLLLTSWALYSQATGYFALFGMLFFMIFYALSWGVGAWVLISEIFPNRMRSQGMSISVGFMWMANFLVSQFFPMINENPYLLSHFHGAFPMWIFAICCIFSYFFICRYLPETKGISLEKMESVVLAKRRKKLQPIQTERYSD”, the protein production entry is listed as “failed”.

“MSTSFTMIGGEGPNSYREHSKYQGALVIAAKEKINEAISTKLDIDFTSNLVNIADFGCSSGPNTFTAVQTLIDAVENKYKKESNIEGIEFQVFFNDSSNNDFNTLFKTLPPARLYFASGVPGSFFGRVLPKNSLHVGVSSYSLHFVSKVPKEIKDRDSLVWNKDIHCSGSSKEVVKLYLGQYKIDVGSFLTARAQELVSGGLLLLLGSCRPTGVQMFETVEGMMIDFIGSSLNEIANQGLIDQQKLDTFKLPIYAPNVDELKQIIEDNKCFTIEAFEKISHAKGEYPLDPEYLTSAFKVTVGGSVASLFGQDGMEKTYELVKEKTQEMLPQIAKAKPGMQYLIVLRRN”: the protein production entry is reported as “failed”.

Consider “MSTSLTIRLVAEADWPALHALDQIIWTKKNTPAEIQPLSLAAYQEKMKDETIFVAISGQQLAGFIEVHPPTSLAAHQKQWLLSIGVSPDFQDQGIGGSLLSYIKDMAEISGIHKLSLRVMATNQEAIRFYEKHGFVQEAHFKEEFYINGHYCDDYQYAYFIEK”, for which the protein production result is recorded as “not failed”.

As for “MSTSPADTARYNRFVADLFGMMAYGELSAFERFSADARYSPTLHDRAVLGRIAVVEFRHYELVSARLEAMGIDAEDAMLPFQAAVDYFHSRTRPADWYESLMKAYVIDTVSADFYRAISRYVDAGTRDVIEQIQASDETTEVLRERLRSALADDPRLASRLALWGRRLLGEALTQAQRVSYEHAFLGSLIGGEDSAAAKELVSGLIAGLAEKHSKRMTQLGLTG”, the protein production result is “not failed”.

Turning to “MSTVETPVYVPRTVVHKFGGTSVADADCYRHVTRLLLAREETVQVTIVSAMKGVTDTLIALAEQAANHSPDWQVLWQQTRTRHCDAAQALLGEHAATLQDWLNTRFNELHEMLVALSVIGMLPSEVLDRLQGLGEVYSAQLLGHYLQSQGEDCVVLDARQVLVVSPGEFGAEVDWATSAQHLAHWRMQHPQRRVVVTGFVASDRTGRAITLGRNGSDYSGAIFAALFEADELHIWTDVDGVMSADPRVVPDAVQLDALSYDEACELAYFGAKVVHPQTMSPVMKRGVPIIIRNTFQPGHPGTRITADSVVSGSVKGLTLSPGLAVLNLEGTGLIGVPGTAERVFAALRNARLSVVMISQGSSEHSICCLVHQTEAERARDALLYAFAHELAIGHVQRVQLTNNISVLAAVGDGMAGHLGVAARLFESLRRAHVNILAIAQGSSERNISVAIDSQQATKALRAAHAAFWLSPQTFSIGVIGPGHVGEALLDQLCAAQQQLLSKANLDLRLRAIVSRRRMLLDERGLGSDWRHAFAAAPEAVDLDAFTAHLQAAHLPHAVIIDCSGSAEVADRYADWLAAGIHVVTPNKQAGSGPLHRYHAIRAAADASGARFRYEATVGAGLPVITTLRDLMDTGDSVTSIEGIFSGTLAWLFNKYDGSVPFSQLIAQARAMGYTEPDPRDDLSGVDVARKLVILARDAGRDISLEDVAVESLVPETLCQLSVADFMERLNEIDATFAERLAAAKQRGCVLRYVAQLSPGHVPSVSLIELPSDHAFVNLRLTDNVVQFTTRRYSENPLIVQGPGAGPEVTAAGVFADLLRVAAGEGARL”, the protein production result is recorded as “failed”.

For the sequence “MSTVNGANIQSEEQHTGGCSAGCSGGSTGGSTDGSTGGNTQQGCSCDTHDEQRDGSVAAQTFGEEGPVKTLGRIGSKLVVLSGKGGVGKSTVAVNLAVGLARAGRKVGLLDVDVHGPSVPRLLGLTGTRPMIGEDAMYPVGWRNNLRVMSLGFFLPDPEQAVIWRGPVKMGLIRHFLTEVRWGDLDHLVVDCPPGTGDEPLSVLQLLGTDAQAVIVTTPQGVAVDDVRRSVGFCRELGNPILGIVENMGGYVCPKCGELTPLFPAGGGEALAAEQGVTFLGRIPLHPDLTSAGDAGRSLYEADAAHPIVRALAPIVERAAATLHASDIRHESTTGPQSEAAPGTGKTAATMPTAPTRNESCAPATNHPDTNGDTTMKIAIPVAGDVLCQHFGHCERFALIDVDPATGSVTGRNDVTPPPHEPGLLPVWLSEKGANLVIAGGMGARARALLEERGVKVLIGAPAAAPEAIVAAHMAGTLTLGANTCDH”, the protein production result is given as “failed”.

The record behind these values is a protein production outcome set (Wang et al. 2014).
